Assays:
Bv8 expression [1] = assay: Regulation of Bv8 gene expression in cultured human blood and bone marrow cells (Taqman); format: cell-based
Protocol: RNA was prepared using the RNeasy™ Mini Kit (Qiagen). 50 ng total RNA per reaction was used for the real time PCR (Taqman) analysis. For human Bv8, testis RNA (BD Biosciences) served as control. Reactions were run on 9600 Emulation mode of 7500 Real time PCR system (Applied Biosystems, Foster City, Calif.) and the absolute quantification with standard curve was used with Sequence Detection System (SDS) software. The expression level of each gene was further quantified relative to the housekeeping gene RPL19 in the same sample. The sequences of Taqman primers are as follows: Human Bv8 forward: ATG GCA CGG AAG CTA GGA (SEQ ID NO: 10), reverse: GCAGAGCTGAAGTCCTCTTGA (SEQ ID NO: 11), probe: TGCTGCTGGACCCTTCCTAAACCT (SEQ ID NO: 12); Human RPL19 forward: CGC AAG CGC CGT GAA (SEQ ID NO: 28), reverse: GGTCTCTTCCTCCTTGGATAAAGTC (SEQ ID NO: 29), probe: CCAGGCCAAGAAGGAGGAGATCATCA (SEQ ID NO: 30). Human specific VEGF forward: AAT GAC GAG GGC CTG GAG T (SEQ ID NO: 31), reverse: TTGATCCGCATAATCTGCATG (SEQ ID NO: 32), probe: TGTGCCCACTGAGGAGTCCAACATCA (SEQ ID NO: 33).
(§1) Recombinant human MCP-1, MIP-1α, MIP-1β, MIP-2, bFGF, VEGF, GM-CSF, G-CSF, SDF-1α, M-CSF, Erythropoietin (EPO) and TNFα were purchased from R&D Systems (Minneapolis, Minn.). Recombinant human IL-8, IFNγ, Bv8 (Prokineticin-2), IL-4, IL-10, IL-13, TGF-β were from PeproTech Inc. (Rocky Hill, N.J.). SCF (Stem Cell factor) was from Invitrogen Biosource (Carlsbad, Calif.). In some cases, G-CSF from Amgen (Neupogen/Filgrastim) was used. All cytokines were used at 10 ng/ml. Freshly purified cells were washed and re-suspended in HBSS media containing 0.2% BSA (low endotoxin, Serologicals Corp. Norcross, Ga.). Two million cells were incubated in 24-well plates with various cytokines and chemokines for 4 hr at 37° C. in a 5% CO2 incubator. Cells were then transferred into eppendorf tubes, centrifuged and lysed with RNA lysis buffer (Qiagen, Valencia, Calif.). Bv8 expression was assessed by Taqman with RPL19 (Ribosomal Protein L19) as the internal control gene.

[2] = system: PKR2/EG-VEGFR2 expression; assay: Regulation of PKR2/EG-VEGFR2 expression in human bone marrow cells and neutrophils; format: cell-based
Source text: Taqman reagents for human PKR1/EG-VEGFR1 and PKR2/EG-VEGFR2 were obtained from Applied Biosystems.
as §1

[3] = system: Bv8 and PKR2/EG-VEGFR2 expression; assay: White blood cells from G-CSF treated donors; format: in vivo, human
Protocol: MaxiSorp® 96-well microwell plates (Nalge Nunc International, Rochester, N.Y.) were coated with 1.0 μg/ml 3F1 mouse monoclonal antibody (Genentech Inc.) in 50 mM carbonate buffer, pH 9.6, at 4° C. overnight. Plates were washed with PBS containing 0.05% polysorbate 20 and blocked with 0.5% bovine serum albumin, 15 p.p.m. (parts per million) Proclin 300 (Supelco, Bellefonte, Pa.) in PBS at room temperature for 1 h. After plates were washed, human Bv8 standards (0.020-2.5 ng/ml in 2-fold serial dilution, PeproTech, Rocky Hill, N.J.) and samples (minimum 1:10 dilution) in PBS containing 0.5% bovine serum albumin, 0.05% polysorbate 20, 15 p.p.m. Proclin 300 (Supelco, Bellefonte, Pa.) and 0.35N NaCl (sample buffer) were serially diluted and were added to each well. The plates were incubated for 2 hr at room temperature followed by a washing step. The bound Bv8 was detected by adding the secondary antibody, a biotinylated hamster anti-Bv8 antibody clone 3B8 (Genentech Inc.) followed by adding streptavidin-HRP (GE Healthcare, Buckinghamshire, United Kingdom) and 3,3′,5,5′-tetramethyl benzidine (Kirkegaard & Perry Laboratories, Gaithersburg, Md.) as the substrate. The reaction was stopped by adding 1 M phosphoric acid. Absorbance was read at 450 nm on a ThermoMax microplate reader (Molecular Devices, Menlo Park, Calif.). The titration curves of the standards were calculated using a four-parameter regression curve-fitting program (Genentech Inc). Human Bv8 concentration was calculated by extrapolating the optical density values of samples to the data range in the standard curve. The Bv8 ELISA was capable of measuring up to 10% lysis buffer and had the sensitivity to detect Bv8 as low as 0.20 ng/ml in tissue lysates. […] This ELISA could also detect mouse Bv8 but with less than 7% sensitivity.
Peripheral white blood cells were obtained from normal donors after 4-5 days of G-CSF treatment by apheresis collections (Cellular Therapy and Cell Processing Facilities, Fred Hutchinson Cancer Research Center, Seattle, Wash.). […]

Bv8 expression [4] = assay: Bv8 expression in human leukemia cell lines; format: cell-based
Protocol: U937, HL-60, THP-1, Hel 92.1.7, KG-1, K562, Jurkat cells were obtained from the ATCC® (Manassas, Va.). Most cells were grown in 10% FBS-containing RPMI. KG-1 cells were grown in 20% FBS-containing Iscove's modified Dulbecco's medium. For THP-1 cells, 10% FBS-containing RPMI was used with Sodium Pyruvate, HEPES and β-mercaptoethanol. For regulation studies, 1 million cells with viability higher than 95% were used. Regulation studies were performed under both normoxia and hypoxia conditions for 4 hr in 1 ml HBSS media containing 0.2% BSA.

B1: G-CSF: recombinant granulocyte-CSF: mouse or human (R&D Systems) or human Neupogen (Amgen) (protein, chains of the INN, looked up)
chain: MTPLGPASSLPQSFLLKCLEQVRKIQGDGAALQEKLCATYKLCHPEELVLLGHSLGIPWAPLSSCPSQALQLAGCLSQLHSGLFLYQGLLQALEGISPELGPTLDTLQLDVADFATTIWQQMEELGMAPALQPTQGAMPAFASAFQRRAGGVLVASHLQSFLEVSYRVLRHLAQP
In the case of B1, the “Bv8 expression in monocytes and lymphocytes” value (Bv8 expression [1]; 10 ng/ml, 4 hr) is reported as “did not show any change”, the “induction of Bv8 expression in human neutrophils and whole bone marrow cells” value (Bv8 expression [1]; 10 ng/ml, 4 hr) is reported as 7 fold and the “range of induction of Bv8 expression” value (Bv8 expression [1]; 10 ng/ml, 4 hr) is reported as 6-12 fold. The “duration of Bv8 mRNA induction” value (Bv8 expression [1]; data not shown) was “up to 24 hr”, the “regulation of PKR2/EG-VEGFR2 in human bone marrow” value [2] was “regulate PKR2/EG-VEGFR2 to a significant level” and the “increase in Bv8 protein level in G-CSF mobilized mononuclear cells” value ([3]; ELISA, vs untreated donors) was 10 fold. The “increase in Bv8 expression in G-CSF mobilized mononuclear cells” value ([3]; donors treated 4-5 days, vs untreated donors) was “About 4.5 fold”, the “induction of PKR2/EG-VEGFR2 expression in mononuclear cells” value ([3]; vs un-treated control samples) was about 2 fold and the “Bv8 expression in HL-60” value (Bv8 expression [4]) was “Neither G-CSF nor GM-CSF affected Bv8 expression”. The “increase in Bv8 expression in several leukemia cell lines” value (Bv8 expression [4]; 10 ng/ml, 4 hr) was 2-3 fold.
